Data: patent US20100016556A1 (published 2010)

Target: T1, CD3 on Jurkat cells (human, UniProt P07766 23-207)
T1 construct: whole, on cells; the CD3 complex has several chains; also called T cells (Jurkat); J6 cells
Assay: binding to J6 cells; method not described

T1 sequence (P07766 23-207): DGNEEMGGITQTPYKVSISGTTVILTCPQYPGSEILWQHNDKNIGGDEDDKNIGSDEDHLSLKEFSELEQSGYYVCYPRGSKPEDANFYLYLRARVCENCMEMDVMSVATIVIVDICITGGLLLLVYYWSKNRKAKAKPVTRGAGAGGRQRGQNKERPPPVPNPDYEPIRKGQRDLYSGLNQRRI

B1: BsF(ab')2 v1 (anti-p185HER2/anti-CD3 v1) (bispecific antibody)
chain 1: not shown
chain 2: not shown
chain 3: DIQMTQSPSSLSASVGDRVTITCRASQDIRNYLNWYQQKPGKAPKLLIYYTSRLESGVPSRFSGSGSGTDYTLTISSLQPEDFATYYCQQGNTLPWTFGQGTKVEIK
chain 4: EVQLVESGGGLVQPGGSLRLSCAASGYSFTGYTMNWVRQAPGKGLEWVALINPYKGVTTYADSVKGRFTISVDKSKNTAYLQMNSLRAEDTAVYYCARSGYYGDSDWYFDVWGQGTLVTVSS
modifications: hinge Cys thioether-linked through o-PDM to the other Fab' arm
Q: How did the Kd turn out when B1 was run?
A: Its Kd is 140 nM.
